Assay results from the nanobody polyreactivity screen of Harvey et al. (2022).

Assay: yeast display, Sf9 membrane polyspecificity reagent, FACS + sequencing; frameworks hold sequencing errors
Summary of the method: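 A nanobody's polyreactivity label depends on the gate it was sorted from. Yeast display cells were stained with 10% biotinylated, detergent-solubilized Sf9 membrane reagent for 1 hour at 4 °C, enriched on streptavidin microbeads and sorted by FACS. The low and high (top ~1%) gates were set on anti-HA fluorescence for expression and streptavidin fluorescence for reagent binding.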

Row | Sequence | polyreactivity (PSR sort gate)
1 | QVQLVESGGGLVQAGGSLRLSCAPCGSIFSSYAMGWYRQAPGQDWELVAAISSGGCITYYADSVKGRFTISRDNAKNTVYLQMHSLKPEDTAVYYCNARVARSNYGWYYDWGQGTQVTVSS | high polyreactivity
2 | QVQLVESGGGLVQAGGSLRLRCAASGFIFRHNAMGWYRQAPGKAREFVAAISISGGSTYYADSVKGRFTISRDNAKNTVYLQMNSLKPEDTAVYYCNARSMGNTYLLYDYWGQGTQVTFSS | low polyreactivity
3 | QVQLVESGGGLVQAGGSLRLSCAASGITFVYNDMGSYRQAPGKESELVAAISWRGGSTYYADSVKGRFTISRDNAKNTVYLQMNSLKPEDTAVYYCNKLPTYPEYGYDSWGQGTQVTVSS | high polyreactivity
4 | QVQLVESGGGLVQAGGSLRLSCAASGSTFYVYAIGWYRHAPGKERELVADITYSDGGTFYADSVKGRFTISRDNAKTTVYLQMNSLKPEDTAGYYCATSYLWNYRGDIFDYWGQGTQVTVSS | high polyreactivity
5 | QDQLVESGGGLVQAGGSLRLSFAASGSTFWYNDMGWYRQAPGKERELVASISWSGGDTYYADSVKGRFTISRDNAKNSVYLQMNSLKPEDTEVYYCAKGNNWISRLMDYWGQGTQVTVSS | low polyreactivity
6 | QVQLVESGGGLVQAGGSLSLICAASGSTLATYTMGGYRQAPGKERELVAAISFGGSTYYADSVKGRYTISRDNAKNTVYLQMISLKPEDTAVYYCAVYGDSYWGAYYYSDGYWGQGTQVTVSS | low polyreactivity
7 | QVQLVESGGGLVQAGGSLRLSCAASGRTFVDYAMGWYRQAPGKERELVAAINTGGRTKYADSVKGRFTISRDNAKITVYLQMNSLKPEDTAVYYCAARKQYGGVRGDYWGQGTQVTVSS | high polyreactivity
8 | QVQLVESGGGLVQAGGSLRLSCAASGFIFGRYAMGWYRQAPGKERELVAAITRSGGTTYYADSVKGRFTISRDNAKKTVYLQMYSLKPEDTAVYYCAAPRIYYTDDYWGQGTQVTVSS | high polyreactivity
9 | QVQLVESGAGLVQAGGSLRLSCAASGGTFWKYAMGWYRQAPGKESELVAAITWSGSSTYYADSVKGRFTISRDNAKNTVFLLMKSLKPEDTAVYYCARYHVGPSYRYGYWGQGTQVTVSS | high polyreactivity
10 | QVQLVESGAGLVQAGGSLRLSCAASGFIFLAYTMGWSRQGPAKERELVAAISTSGGSTYYADSVKGRFTISRDKAKNTVYLEMNSLKPEDTGVYYCAADYSYWRGYDSWGQGTQVTVSS | high polyreactivity
11 | QVQLVESGGGLVQAGGSLRLSCAASGRTFYRNAMGWYRQAPGKETELVAAITWSGVSTYYADSVKGRFTISRDNAKNTVYIQMNSLKPEDTAVYYCSRARVLRNGHYFQLRNYDYWGQGPQVTVSS | high polyreactivity
12 | QVQLVDSGGGLVQAGGSLRLSCAASGFTFYRYAMGWYRQAPGKERELVAAITGRAGRTYYADSVKGRFTISRDNAKNTVYLQMNSLKPEDTAVYYCSGYRYYGGYGYWGQGTQVTVSS | high polyreactivity
13 | QVQLVESGGGLVQAGGSLRLSCAASGRTFVRYAMGWYRQAPGKERELVAAISWSGGSTYYADSVKGRFTISRDNAKNTVYLQMNSLKPADTAVYYCAAYYRGRNFDYCGQGTQVTVSS | high polyreactivity
14 | QVQLVESGGGLVQAGGSHSLSCAASGSTFKHYAMGWYRQAPGKERELVAAISWGGVNTDYADSVKGRFTISRDNAKNTVYLQMNSLNPEDTAVYYCAAGRWSVGTYDYWGQGTQVTVSS | low polyreactivity
15 | QVQLVESGGGLVQAGGSLRLSCPPSGTFSFYAMGWYRQAPGKERELVATIRSGGRTYYADSVKGRFTISRDNAKNTVYLQMNSLKPEDTAVYYCAAASTKLSGSDYDYWGQGTQVTVSS | high polyreactivity
16 | QVQLVESGGGLVKAGGSLRLSCAASGSSLRYNAMGWYRQAPGKERELVAAISWGGGRTHYADSVKGRFTISRDNAKNSVYLQMNSLKPEDTAVYYCNGVSVRYLYYYWGQGTQVTVSS | high polyreactivity
17 | QVQLVESGGGLVQGGGSLRLTCAASGSIFHYYAMGWYRQAPGKERELVAAINSSGGSRTYYADSVKGRFTISRDNAKNTVYLQMNSLKPEDTAVYYCAADYRVVWRAYDYWGQGTQVTVSS | low polyreactivity
